Sequences and labels used below:
B1: DVD490 DLL4 arm (antibody, V domains shown)
VH: EVQLQQSGPELVKPGASVKMSCKASGYTFTSYVINWVKQKPGQGLEWIGLINPYNDGTKYNEKFKVKATLTSDKSSSTAYMELSSLTSEDSAVYYCASYYYGSRYYFDYWGQGTTLTVSS
VL: DIQMTQSSSYLSVSLGGRVTITCKASDHINNWLAWYQQKPGNAPRLLISGATSLETGVPSRFSGSGSGKDYTLSITSLQTEDVATYYCQQYWSIPLTFGAGTKLELKR
modifications: DVD-Ig inner
B2: DVD508 DLL4 arm (antibody, V domains shown)
VH: B1 VH
VL: B1 VL
modifications: DVD-Ig inner
B3: DVD495 DLL4 arm (antibody, V domains shown)
VH: B1 VH
VL: B1 VL
modifications: DVD-Ig outer
B4: DVD524 DLL4 arm (antibody, V domains shown)
VH: EVQLQQSGPELEKPGASVKISCKASGYSFTGYNMNWVKQSNGKSLEWIGNIDPYFGGTNYNQKFKGKATLTVDKSSSTAYMQLKSLTSEDSAVYYCARNYDYDGGCFDYWGQGTTLTVSS
VL: QAVVTQESALTTSPGETVTLTCRSSTGAVTTSNYANWVQEKPDHLFTGLIGGTNNRAPGVPARFSGSLIGDKAALTITGAQTEDEAIYFCALWYSNHWVFGGGTKLTVLG
modifications: DVD-Ig inner
B5: DVD514 DLL4 arm (antibody, V domains shown)
VH: B4 VH
VL: B4 VL
modifications: DVD-Ig inner
B6: DVD520 DLL4 arm (antibody, V domains shown)
VH: B4 VH
VL: B4 VL
modifications: DVD-Ig inner
B7: DVD534 DLL4 arm (antibody, V domains shown)
VH: B4 VH
VL: B4 VL
modifications: DVD-Ig inner
B8: DVD447 DLL4 arm (antibody, V domains shown)
VH: QVQLVQSGAEVKKPGASVKISCKASGYSFTAYYIHWVKQAPGQGLEWIGYISSYNGATNYNQKFKGRVTFTTDTSTSTAYMELRSLRSDDTAVYYCARDYDYDVGMDYWGQGTLVTVSS
VL: DIVMTQSPDSLAVSLGERATISCRASESVDNYGISFMKWFQQKPGQPPKLLIYAASNQGSGVPDRFSGSGSGTDFTLTISSLQAEDVAVYYCQQSKEVPWTFGGGTKVEIKR
modifications: DVD-Ig outer
B9: DVD451 DLL4 arm (antibody, V domains shown)
VH: B8 VH
VL: B8 VL
modifications: DVD-Ig outer
B10: DVD453 DLL4 arm (antibody, V domains shown)
VH: B8 VH
VL: B8 VL
modifications: DVD-Ig outer
B11: DVD455 DLL4 arm (antibody, V domains shown)
VH: B8 VH
VL: B8 VL
modifications: DVD-Ig outer
B12: DVD457 DLL4 arm (antibody, V domains shown)
VH: B8 VH
VL: B8 VL
modifications: DVD-Ig outer
B13: DVD446 DLL4 arm (antibody, V domains shown)
VH: B8 VH
VL: B8 VL
modifications: DVD-Ig inner
B14: DVD444 DLL4 arm (antibody, V domains shown)
VH: B8 VH
VL: B8 VL
modifications: DVD-Ig inner
B15: DVD478 DLL4 arm (antibody)
chain 1: EVQLVESGGGLVQPGGSLRLSCAASGFTFTDNWISWVRQAPGKGLEWVGYISPNSGFTYYADSVKGRFTISADTSKNTAYLQMNSLRAEDTAVYYCARDNFGGYFDYWGQGTLVTVSS
chain 2: DIQMTQSPSSLSASVGDRVTITCRASQDVSTAVAWYQQKPGKAPKLLIYSASFLYSGVPSRFSGSGSGTDFTLTISSLQPEDFATTYYCQQSYTGTVTFGQGTKVEIKR
modifications: DVD-Ig inner
B16: DVD473 DLL4 arm (antibody)
chain 1: B15 chain 1
chain 2: B15 chain 2
modifications: DVD-Ig outer
B17: DVD475 DLL4 arm (antibody)
chain 1: B15 chain 1
chain 2: B15 chain 2
modifications: DVD-Ig outer

DLL4, sequence (Q9NR61 27-524): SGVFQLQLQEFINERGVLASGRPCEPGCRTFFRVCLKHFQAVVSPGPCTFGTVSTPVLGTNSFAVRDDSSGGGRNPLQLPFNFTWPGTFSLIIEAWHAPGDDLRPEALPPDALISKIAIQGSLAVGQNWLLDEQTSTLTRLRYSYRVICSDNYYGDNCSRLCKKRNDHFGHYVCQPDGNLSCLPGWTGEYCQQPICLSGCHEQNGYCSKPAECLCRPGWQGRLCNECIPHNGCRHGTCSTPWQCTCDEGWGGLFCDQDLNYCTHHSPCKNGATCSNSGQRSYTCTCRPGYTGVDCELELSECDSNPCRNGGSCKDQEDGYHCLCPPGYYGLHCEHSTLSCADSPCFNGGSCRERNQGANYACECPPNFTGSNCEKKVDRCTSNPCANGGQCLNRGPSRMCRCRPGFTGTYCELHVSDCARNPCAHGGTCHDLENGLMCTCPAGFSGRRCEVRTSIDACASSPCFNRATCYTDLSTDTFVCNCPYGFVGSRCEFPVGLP

This experiment concerns the target DLL4 (human, UniProt Q9NR61). Kind of experiment: ELISA.
B1 had an EC50 of 9.27 nM.

B2 had an EC50 of 0.61 nM.

B3 displayed an EC50 of 0.33 nM.

B4 came in with an EC50 of 0.22 nM.

B5: it took 21.1 nM to reach a half-maximal effect (EC50).

B6 yielded an EC50 of 17.3 nM.

The molecule B7 registered an EC50 of 0.47 nM.

The molecule B8 came in with an EC50 of 0.12 nM.

The molecule B9 returned an EC50 of 0.4 nM.

As for B10, the EC50 amounted to 0.09 nM.

B11 came in with an EC50 of 0.24 nM.

B12 had an EC50 of 0.13 nM.

For B13, the EC50 is 13.9 nM.

Turning to B14, the EC50 was 30.5 nM.

For the molecule B15, the response was half-maximal at 2.53 nM (EC50).

B16 displayed an EC50 of 1.8 nM.

Molecule B17 returned an EC50 of 0.23 nM.

(Values after patent US9029508 (dated 2015).)
